The results in this text go back to patent US20250076311A1 (Chugai, published 2025).

Test [1] deals with T1, cynomolgus monkey FcγRIIa2 extracellular domain with C-terminal His-tag (cynomolgus monkey).
T1 construct: also called cyno FcgRIIa2; cynoFcγRIIa2; not shown: His-tag added to C-terminus
T1 chain: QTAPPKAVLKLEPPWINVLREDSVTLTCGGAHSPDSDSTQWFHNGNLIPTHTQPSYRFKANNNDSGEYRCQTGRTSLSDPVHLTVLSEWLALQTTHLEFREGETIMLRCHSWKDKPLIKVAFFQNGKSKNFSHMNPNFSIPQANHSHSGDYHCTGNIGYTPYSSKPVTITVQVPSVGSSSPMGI
Put plainly: SPR Biacore, antibody captured, FcgR analyte. On the technique in general: SPR reads the build-up and loss of mass on a sensor chip optically.

Test [2] concerns the target T2, cynomolgus monkey FcγRIIb extracellular domain with C-terminal His-tag (cynomolgus monkey).
T2 construct: also called cyno FcgRIIb; cynoFcγRIIb; not shown: His-tag added to C-terminus
T2 chain: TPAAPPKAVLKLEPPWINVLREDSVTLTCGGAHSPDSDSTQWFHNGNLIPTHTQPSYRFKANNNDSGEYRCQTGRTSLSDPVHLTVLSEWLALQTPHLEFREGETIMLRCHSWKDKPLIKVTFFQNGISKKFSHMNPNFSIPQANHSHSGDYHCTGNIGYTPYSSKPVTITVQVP
Description: SPR Biacore, antibody captured, FcgR analyte.

Test [3] addresses T3, cynomolgus monkey FcγRIIIaS extracellular domain with C-terminal His-tag (cynomolgus monkey, UniProt A3RFZ7 21-206 (rhesus entry)).
T3 construct: also called cyno FcgRIIIaS; cynoFcγRIIIaS; not shown: His-tag added to C-terminus
Put plainly: SPR Biacore, antibody captured, FcgR analyte.

Test [4] deals with T4, human FcγRIIb extracellular domain with C-terminal His-tag (human, UniProt P31994 43-217).
T4 construct: also called human FcgRIIb; not shown: His-tag added to C-terminus
T4 sequence: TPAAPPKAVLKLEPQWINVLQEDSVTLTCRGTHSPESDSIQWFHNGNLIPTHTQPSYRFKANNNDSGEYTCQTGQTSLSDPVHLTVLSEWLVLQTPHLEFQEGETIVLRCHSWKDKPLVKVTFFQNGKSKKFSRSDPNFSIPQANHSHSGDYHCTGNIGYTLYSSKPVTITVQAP
Put plainly: SPR Biacore, antibody captured, FcgR analyte.

The target in test [5] is T5, cynomolgus monkey FcγRIIa3 extracellular domain with C-terminal His-tag (cynomolgus monkey).
T5 construct: also called cyno FcgRIIa3; cynoFcγRIIa3; not shown: His-tag added to C-terminus
T5 chain: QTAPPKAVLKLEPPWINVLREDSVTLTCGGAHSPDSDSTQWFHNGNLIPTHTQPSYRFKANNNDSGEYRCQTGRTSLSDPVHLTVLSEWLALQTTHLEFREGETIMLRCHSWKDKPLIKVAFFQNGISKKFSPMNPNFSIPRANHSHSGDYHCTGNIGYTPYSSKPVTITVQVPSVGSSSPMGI
Description: SPR Biacore, antibody captured, FcgR analyte.

In test [6] the target is T6, cynomolgus monkey FcγRIIIaS extracellular domain, His-tagged (cynomolgus monkey, UniProt Q8SPW2 21-206 at identity 1.00)).
T6 construct: also called cyno FcγRIIIaS; cynoFcgRIIIaS
T6 chain: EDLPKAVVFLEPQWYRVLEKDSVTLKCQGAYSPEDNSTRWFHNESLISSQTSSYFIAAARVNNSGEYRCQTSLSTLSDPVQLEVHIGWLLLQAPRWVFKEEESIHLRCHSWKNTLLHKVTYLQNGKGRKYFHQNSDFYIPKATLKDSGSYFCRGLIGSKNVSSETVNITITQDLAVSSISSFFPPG
Put plainly: SPR (BIACORE), antibody captured, FcγR analyte, 25 C; KD of SG1 divided by KD of variant. Here is the method:
The kinetic analysis of interactions between these antibodies and FcγR was carried out using BIACORE® T200 or BIACORE® 4000 (GE Healthcare). HBS-EP+ (GE Healthcare) was used as the running buffer, and the measurement temperature was set to 25° C. […] After the measurement, the antibody captured on the chip was washed off by allowing reaction with 10 mM glycine-HCl, pH1.5 and 25 mM NaOH so that the chip was regenerated and used repeatedly. The sensorgrams obtained as measurement results were analyzed by the 1:1 Langmuir binding model using the BIACORE® Evaluation Software to calculate the binding rate constant ka (L/mol/s) and dissociation rate constant kd (1/s), and the dissociation constant KD (mol/L) was calculated from these values. […] Regarding such interactions, KD values were calculated using the following 1:1 binding model described in BIACORE® T100 Software Handbook BR1006-48 Edition AE.

B1: M103205H795-MY184/M103202L889-SK1 (antibody, human IgG1, kappa, name in EU numbering)
heavy: QVTLKESGPVLVKPTETLTLTCTVSGIDLSHDDISWVRQAPGKGLEWVGIISYAGSTYYASWAKGRLTISKDTSKNQVVLTMTNMDPVDTATYYCARGVPAYSHGGDLWGQGTLVTVSSASTKGPSVFPLAPSSKSTSGGTAALGCLVKDYFPEPVTVSWNSGALTSGVHTFPAVLQSSGLYSLSSVVTVPSSSLGTQTYICNVNHKPSNTKVDKKVEPKSCDKTHTCPPCPAPELLNGPSVFLFPPKPKDTLMISRTPEVTCVVVDVSEEDPEVKFNWYVDGVEVHNAKTKPREEQYNSTYRVVSVLTVLHQDWLNGKEYKCKVSNKALPAPIEKTISKAKGQPREPQVYTLPPSREEMTKNQVSLTCLVKGFYPSDIAVEWESNGQPENNYKTTPYVLDSDGSFFLYSKLTVDKSRWQQGNVFSCSVMHEALHNHYTQKSLSLSP
light: DIVMTQSPATLSLSPGERATLSCTSSQSVYHANWLSWFQQKPGQPPKLLIYWASTLAYGVPSRFSGSGSGTDFTLTISSLQPEDAATYYCAGGYGGGRYAFGQGTKVEIKRTVAAPSVFIFPPSDEQLKSGTASVVCLLNNFYPREAKVQWKVDNALQSGNSQESVTEQDSKDSTYSLSSTLTLSKADYEKHKVYACEVTHQGLSSPVTKSFNRGEC
notes: EU numbering
The Kd is the free concentration of one partner at which half of the binding sites on the other are occupied at equilibrium, for simple one-to-one binding. Consider B1, for which the figures for the “KD fold (SG1 = 1)” value in test [1], in test [3] and in test [4] were 2.8 fold, 0.11 fold and 4.7 fold, respectively. Besides, the Kd in test [2] was found to be 900 nM; in test [3] it was 3.3 µM.

B2: M103205H795-MY208/M103202L889-SK1 (antibody, human IgG1, kappa, name in EU numbering)
heavy: QVTLKESGPVLVKPTETLTLTCTVSGIDLSHDDISWVRQAPGKGLEWVGIISYAGSTYYASWAKGRLTISKDTSKNQVVLTMTNMDPVDTATYYCARGVPAYSHGGDLWGQGTLVTVSSASTKGPSVFPLAPSSKSTSGGTAALGCLVKDYFPEPVTVSWNSGALTSGVHTFPAVLQSSGLYSLSSVVTVPSSSLGTQTYICNVNHKPSNTKVDKKVEPKSCDKTHTCPPCPAPELLNGPSVFLFPPKPKDTLMISRTPEVTCVVVDVSDEDPEVKFNWYVDGVEVHNAKTKPREELYNSTYRVVSVLTVLHQDWLNGKEYKCKVSNKALPAPIEKTISKAKGQPREPQVYTLPPSREEMTKNQVSLTCLVKGFYPSDIAVEWESNGQPENNYKTTPPVLDSDGSFFLYSKLTVDKSRWQQGNVFSCSVMHEALHNHYTQKSLSLSP
light: DIVMTQSPATLSLSPGERATLSCTSSQSVYHANWLSWFQQKPGQPPKLLIYWASTLAYGVPSRFSGSGSGTDFTLTISSLQPEDAATYYCAGGYGGGRYAFGQGTKVEIKRTVAAPSVFIFPPSDEQLKSGTASVVCLLNNFYPREAKVQWKVDNALQSGNSQESVTEQDSKDSTYSLSSTLTLSKADYEKHKVYACEVTHQGLSSPVTKSFNRGEC
notes: substitutions in EU numbering, introduced into M103205H795-SG1
Take B2: the results for the “KD fold (SG1 = 1)” value in test [1] and in test [3] were 3.4 fold and 0.13 fold, respectively.

B3: M103205H795-MY211/M103202L889-SK1 (antibody, human IgG1, kappa, name in EU numbering)
heavy: QVTLKESGPVLVKPTETLTLTCTVSGIDLSHDDISWVRQAPGKGLEWVGIISYAGSTYYASWAKGRLTISKDTSKNQVVLTMTNMDPVDTATYYCARGVPAYSHGGDLWGQGTLVTVSSASTKGPSVFPLAPSSKSTSGGTAALGCLVKDYFPEPVTVSWNSGALTSGVHTFPAVLQSSGLYSLSSVVTVPSSSLGTQTYICNVNHKPSNTKVDKKVEPKSCDKTHTCPPCPAPELLNGPVVFLFPPKPKDTLMISRTPEVTCVVVDVSDEDPEVKFNWYVDGVEVHNAKTKPREEQYNSTYRVVSVLTVLHQDWLNGKEYKCKVSNTALPKPIEKTISKAKGQPREPQVYTLPPSREEMTKNQVSLTCLVKGFYPSDIAVEWESNGQPENNYKTTPPVLDSDGSFFLYSKLTVDKSRWQQGNVFSCSVMHEALHNHYTQKSLSLSP
light: DIVMTQSPATLSLSPGERATLSCTSSQSVYHANWLSWFQQKPGQPPKLLIYWASTLAYGVPSRFSGSGSGTDFTLTISSLQPEDAATYYCAGGYGGGRYAFGQGTKVEIKRTVAAPSVFIFPPSDEQLKSGTASVVCLLNNFYPREAKVQWKVDNALQSGNSQESVTEQDSKDSTYSLSSTLTLSKADYEKHKVYACEVTHQGLSSPVTKSFNRGEC
notes: as for B2
B3: the “KD fold (SG1 = 1)” value was 8.8 fold in test [1], 6.5 fold in test [5] and 0.17 fold in test [3].

B4: M103205H795-MY447/M103202L889-SK1 (antibody, human IgG1, kappa, name in EU numbering)
heavy: QVTLKESGPVLVKPTETLTLTCTVSGIDLSHDDISWVRQAPGKGLEWVGIISYAGSTYYASWAKGRLTISKDTSKNQVVLTMTNMDPVDTATYYCARGVPAYSHGGDLWGQGTLVTVSSASTKGPSVFPLAPSSKSTSGGTAALGCLVKDYFPEPVTVSWNSGALTSGVHTFPAVLQSSGLYSLSSVVTVPSSSLGTQTYICNVNHKPSNTKVDKKVEPKSCDKTHTCPPCPAIELLTGPSVFLFPPKPKDTLMISRTPEVTCVVVDVSDEDPEVKFNWYVDGVEVHNAKTKPREEQYNSTYRVVSVLTVLHQDWLNGKEYKCKVSNKALPKPIEKTISKAKGQPREPQVYTLPPSREEMTKNQVSLTCLVKGFYPSDIAVEWESNGQPENNYKTTPPVLDSDGSFFLYSKLTVDKSRWQQGNVFSCSVMHEALHNHYTQKSLSLSP
light: DIVMTQSPATLSLSPGERATLSCTSSQSVYHANWLSWFQQKPGQPPKLLIYWASTLAYGVPSRFSGSGSGTDFTLTISSLQPEDAATYYCAGGYGGGRYAFGQGTKVEIKRTVAAPSVFIFPPSDEQLKSGTASVVCLLNNFYPREAKVQWKVDNALQSGNSQESVTEQDSKDSTYSLSSTLTLSKADYEKHKVYACEVTHQGLSSPVTKSFNRGEC
On to B4, for which, in test [6], the “KD fold (SG1 = 1)” value is 0.3 fold.

B5: M103205H795-MY451/M103202L889-SK1 (antibody, human IgG1, kappa, name in EU numbering)
heavy: QVTLKESGPVLVKPTETLTLTCTVSGIDLSHDDISWVRQAPGKGLEWVGIISYAGSTYYASWAKGRLTISKDTSKNQVVLTMTNMDPVDTATYYCARGVPAYSHGGDLWGQGTLVTVSSASTKGPSVFPLAPSSKSTSGGTAALGCLVKDYFPEPVTVSWNSGALTSGVHTFPAVLQSSGLYSLSSVVTVPSSSLGTQTYICNVNHKPSNTKVDKKVEPKSCDKTHTCPPCPANELLTGPSVFLFPPKPKDTLMISRTPEVTCVVVDVSDEDPEVKFNWYVDGVEVHNAKTKPREEQYNSTYRVVSVLTVLHQDWLNGKEYKCKVSNKALPKPIEKTISKAKGQPREPQVYTLPPSREEMTKNQVSLTCLVKGFYPSDIAVEWESNGQPENNYKTTPPVLDSDGSFFLYSKLTVDKSRWQQGNVFSCSVMHEALHNHYTQKSLSLSP
light: DIVMTQSPATLSLSPGERATLSCTSSQSVYHANWLSWFQQKPGQPPKLLIYWASTLAYGVPSRFSGSGSGTDFTLTISSLQPEDAATYYCAGGYGGGRYAFGQGTKVEIKRTVAAPSVFIFPPSDEQLKSGTASVVCLLNNFYPREAKVQWKVDNALQSGNSQESVTEQDSKDSTYSLSSTLTLSKADYEKHKVYACEVTHQGLSSPVTKSFNRGEC
B5: the “KD fold (SG1 = 1)” value in test [6] stood at 0.2 fold.
